Source: patent publication US20120114667A1
One block for each binder: values may come before it.

Target: avb3 and avb5 integrins on A375M cells
Test: cell-based or functional assay

Osteopontin Adhesion (% inhibition) at 5 ug/ml, A375M cells: 13%
Vitronectin Adhesion (% inhibition) at 5 ug/ml, A375M cells: 9%
B1: 5B11 (antibody, IgG2, V domains shown)
VH: QVQLVESGGGVVQPGRSVRLSCAASGFTFSSYGMHWVRQTPGKGLEWVAIIWYDGGIEYYADSVKGRFTISRDNSKNTLYLQMNSLRAEDTAVYYCARDHRYGSSWFDYWGQGTLVTVSS
VL: DIQMTQSPSSLSASVGDRVTITCRASQGINNYLAWFQQKPGKAPKSLIYAASSLQSGVPSNFSGSGSGTDFTLSISSLQPEDFATYYCQQYKSYPLTFGGGTKVEIR

Osteopontin Adhesion (% inhibition) at 5 ug/ml, A375M cells: 3%
Vitronectin Adhesion (% inhibition) at 5 ug/ml, A375M cells: 10%
B2: 3C5 (antibody, IgG2, V domains shown)
VH: RVQLQESGPGLVKPSQTLSLTCTVSGGSIISGGYFWTWIRQHPGKGLEWIGYIYYSGSTYYSPSLKSRVTISVDTSKNQFSLKLSSVTAADTAVYYCTRAVPAAKGYYSYYGMDVWGQGTTVTVSS
VL: DIVMTQSPLSLPVTPGEPASISCRSSQSLLHSSGYNYLDWFLQKPGQSPQLLIYLSSNRASGVPDRFSGSGSGTDFTLKISRVEAEDVGVYYCMQALQTPFTFGPGTKVDIK
